Experimental data: article PMC9482650, “Quantitative fragmentomics allow affinity mapping of interactomes” (Nature Communications, 2022)

T1: SNTA1, Q13424
T1 sequence (Q13424 82-180, limits assumed, looked up): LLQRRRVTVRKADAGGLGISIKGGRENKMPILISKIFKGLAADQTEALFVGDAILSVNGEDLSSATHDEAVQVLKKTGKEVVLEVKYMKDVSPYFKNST

T2: SNTG1, Q9NSN8
T2 sequence (Q9NSN8 52-150, limits assumed, looked up): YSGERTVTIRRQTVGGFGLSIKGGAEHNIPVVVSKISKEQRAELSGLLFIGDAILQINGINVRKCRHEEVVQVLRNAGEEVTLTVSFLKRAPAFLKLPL

T3: HTRA4, P83105
T3 sequence (P83105 378-476, limits assumed, looked up): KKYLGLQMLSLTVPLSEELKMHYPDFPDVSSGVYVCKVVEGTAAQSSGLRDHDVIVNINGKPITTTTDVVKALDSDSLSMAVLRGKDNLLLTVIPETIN

T4: MPDZ_10, O75970
T4 sequence (O75970 1624-1722, limits assumed, looked up): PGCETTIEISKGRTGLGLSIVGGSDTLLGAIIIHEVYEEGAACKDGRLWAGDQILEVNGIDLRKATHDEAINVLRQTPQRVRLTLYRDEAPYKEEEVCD

T5: NHERF3_1, Q5T2W1
T5 sequence (Q5T2W1 4-100, limits assumed, looked up): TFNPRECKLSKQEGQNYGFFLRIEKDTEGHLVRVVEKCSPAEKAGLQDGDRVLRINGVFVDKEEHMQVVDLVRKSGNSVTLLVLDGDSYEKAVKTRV

T6: DLG3_3, Q92796
T6 sequence (Q92796 374-475, limits assumed, looked up): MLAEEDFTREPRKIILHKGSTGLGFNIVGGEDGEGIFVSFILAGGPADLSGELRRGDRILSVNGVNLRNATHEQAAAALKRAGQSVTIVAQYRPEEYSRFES

T7: DVL3, Q92997
T7 sequence (Q92997 244-331, limits assumed, looked up): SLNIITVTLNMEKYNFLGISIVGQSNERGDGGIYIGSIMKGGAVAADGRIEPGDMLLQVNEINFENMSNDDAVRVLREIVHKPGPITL

T8: DFNB31_1, Q9P202
T8 sequence (Q9P202 135-233, limits assumed, looked up): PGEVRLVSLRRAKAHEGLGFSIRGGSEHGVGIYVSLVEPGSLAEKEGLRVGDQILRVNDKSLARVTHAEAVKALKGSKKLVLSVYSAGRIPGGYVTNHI

T9: RAPGEF6, Q8TEU7
T9 sequence (Q8TEU7 525-625, limits assumed, looked up): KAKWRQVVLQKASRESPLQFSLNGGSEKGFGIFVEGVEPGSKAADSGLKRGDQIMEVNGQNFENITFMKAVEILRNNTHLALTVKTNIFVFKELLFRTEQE

T10: DFNB31_2, Q9P202
T10 sequence (Q9P202 274-371, limits assumed, looked up): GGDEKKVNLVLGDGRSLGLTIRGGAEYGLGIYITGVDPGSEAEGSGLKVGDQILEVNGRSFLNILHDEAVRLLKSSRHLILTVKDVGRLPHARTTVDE

T11: TIAM2, Q8IVF5
T11 sequence (Q8IVF5 885-986, limits assumed, looked up): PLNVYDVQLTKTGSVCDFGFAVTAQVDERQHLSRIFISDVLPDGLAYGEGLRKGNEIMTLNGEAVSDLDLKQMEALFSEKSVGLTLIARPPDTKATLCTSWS

T12: SNTG2, Q9NY99
T12 sequence (Q9NY99 68-166, limits assumed, looked up): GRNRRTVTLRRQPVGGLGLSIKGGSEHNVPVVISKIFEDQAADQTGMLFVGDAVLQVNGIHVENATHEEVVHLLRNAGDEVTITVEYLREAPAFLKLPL

T13: LIN7B, Q9HAP6
T13 sequence (Q9HAP6 88-185, limits assumed, looked up): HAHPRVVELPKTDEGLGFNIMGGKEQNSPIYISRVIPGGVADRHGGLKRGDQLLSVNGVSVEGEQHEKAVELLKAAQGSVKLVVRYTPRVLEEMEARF


Key:
Test in all cases: holdup assay
Set-up in all cases: key: below the threshold = too weak to quantify, mostly under pKd 3.1 to 4
Settings in all cases: plain residues with an end cap or a label only (N-terminal biotin on a linker: ado-ado)
PARD3_3, Q8TEW0 = biological target: PARD3_3, Q8TEW0
Chain of PARD3_3, Q8TEW0 (Q8TEW0 582-685): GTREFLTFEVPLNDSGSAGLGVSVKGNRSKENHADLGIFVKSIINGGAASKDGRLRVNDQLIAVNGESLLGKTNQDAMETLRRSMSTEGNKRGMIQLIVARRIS

SNTA1, Q13424 = biological target: T1, SNTA1, Q13424
GORASP2, Q9H8Y8 = biological target: GORASP2, Q9H8Y8
FRMPD2_3, Q68DX3 = biological target: FRMPD2_3, Q68DX3
Chain of FRMPD2_3, Q68DX3 (Q68DX3 1073-1166): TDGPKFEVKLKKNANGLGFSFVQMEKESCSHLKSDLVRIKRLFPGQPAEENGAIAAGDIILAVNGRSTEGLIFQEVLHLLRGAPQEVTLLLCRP

SNTG1, Q9NSN8 = biological target: T2, SNTG1, Q9NSN8
Inadl_8, Q8NI35 = biological target: Inadl_8, Q8NI35
Chain of Inadl_8, Q8NI35 (Q8NI35 1425-1530): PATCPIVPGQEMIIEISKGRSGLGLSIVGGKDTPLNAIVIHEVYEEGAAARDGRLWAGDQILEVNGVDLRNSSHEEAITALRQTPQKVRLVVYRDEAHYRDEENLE

DLG5_1, Q8TDM6 = biological target: DLG5_1, Q8TDM6
Chain of DLG5_1, Q8TDM6 (Q8TDM6 617-713): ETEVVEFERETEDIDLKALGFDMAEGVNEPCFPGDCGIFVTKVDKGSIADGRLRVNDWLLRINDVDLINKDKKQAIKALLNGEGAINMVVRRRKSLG

NOS1, P29475 = biological target: NOS1, P29475
Chain of NOS1, P29475 (P29475 9-101): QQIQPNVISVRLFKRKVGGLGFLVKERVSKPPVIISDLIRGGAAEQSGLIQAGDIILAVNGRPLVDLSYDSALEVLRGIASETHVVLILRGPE

HTRA4, P83105 = biological target: T3, HTRA4, P83105
GRIP2_5, Q9C0E4 = biological target: GRIP2_5, Q9C0E4
Chain of GRIP2_5, Q9C0E4 (Q9C0E4 544-642): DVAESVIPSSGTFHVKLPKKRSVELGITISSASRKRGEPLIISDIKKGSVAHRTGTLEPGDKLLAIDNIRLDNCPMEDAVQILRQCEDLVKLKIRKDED

LIMK2, P53671 = biological target: LIMK2, P53671
Chain of LIMK2, P53671 (P53671 143-248): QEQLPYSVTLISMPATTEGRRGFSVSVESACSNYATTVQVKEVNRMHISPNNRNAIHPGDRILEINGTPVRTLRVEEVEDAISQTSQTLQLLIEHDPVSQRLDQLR

MPDZ_10, O75970 = biological target: T4, MPDZ_10, O75970
IL16_4, Q14005 = biological target: IL16_4, Q14005
Chain of IL16_4, Q14005 (Q14005 1229-1329): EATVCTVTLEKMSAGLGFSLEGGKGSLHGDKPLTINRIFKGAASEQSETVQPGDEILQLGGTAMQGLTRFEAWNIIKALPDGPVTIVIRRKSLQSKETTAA

SCRIB_1, Q14160 = biological target: SCRIB_1, Q14160
Chain of SCRIB_1, Q14160 (Q14160 718-814): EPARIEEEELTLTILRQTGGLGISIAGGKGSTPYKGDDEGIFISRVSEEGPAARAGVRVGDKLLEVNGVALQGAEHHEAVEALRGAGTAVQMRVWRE

NHERF3_1, Q5T2W1 = biological target: T5, NHERF3_1, Q5T2W1
DLG3_3, Q92796 = biological target: T6, DLG3_3, Q92796
PDLIM1, O00151 = biological target: PDLIM1, O00151
Chain of PDLIM1, O00151 (O00151 1-87): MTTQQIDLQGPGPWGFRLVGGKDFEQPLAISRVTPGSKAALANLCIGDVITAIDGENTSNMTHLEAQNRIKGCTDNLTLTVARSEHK

DVL3, Q92997 = biological target: T7, DVL3, Q92997
DFNB31_1, Q9P202 = biological target: T8, DFNB31_1, Q9P202
IL16_1, Q14005 = biological target: IL16_1, Q14005
Chain of IL16_1, Q14005 (Q14005 210-306): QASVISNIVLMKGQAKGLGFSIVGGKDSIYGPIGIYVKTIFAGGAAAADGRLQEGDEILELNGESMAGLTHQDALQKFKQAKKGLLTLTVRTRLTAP

RAPGEF6, Q8TEU7 = biological target: T9, RAPGEF6, Q8TEU7
DFNB31_2, Q9P202 = biological target: T10, DFNB31_2, Q9P202
TIAM2, Q8IVF5 = biological target: T11, TIAM2, Q8IVF5
SNTG2, Q9NY99 = biological target: T12, SNTG2, Q9NY99
LIN7B, Q9HAP6 = biological target: T13, LIN7B, Q9HAP6

| Binder | pKd (PARD3_3, Q8TEW0) | pKd (SNTA1, Q13424) | pKd (GORASP2, Q9H8Y8) | pKd (FRMPD2_3, Q68DX3) | pKd (SNTG1, Q9NSN8) | pKd (Inadl_8, Q8NI35) | pKd (DLG5_1, Q8TDM6) | pKd (NOS1, P29475) | pKd (HTRA4, P83105) | pKd (GRIP2_5, Q9C0E4) | pKd (LIMK2, P53671) | pKd (MPDZ_10, O75970) | pKd (IL16_4, Q14005) | pKd (SCRIB_1, Q14160) | pKd (NHERF3_1, Q5T2W1) | pKd (DLG3_3, Q92796) | pKd (PDLIM1, O00151) | pKd (DVL3, Q92997) | pKd (DFNB31_1, Q9P202) | pKd (IL16_1, Q14005) | also measured |
| --- | --- | --- | --- | --- | --- | --- | --- | --- | --- | --- | --- | --- | --- | --- | --- | --- | --- | --- | --- | --- | --- |
| PSVYSRSQYV [CLDN8, P56748] | below the threshold | below the threshold | 4.88 | below the threshold | below the threshold | 3.84 | below the threshold | 3.99 | 4.23 | below the threshold | below the threshold | below the threshold | below the threshold | below the threshold | 5.34 | below the threshold | below the threshold | 3.63 | below the threshold | below the threshold | pKd (RAPGEF6, Q8TEU7): below the threshold; pKd (DFNB31_2, Q9P202): below the threshold; pKd (TIAM2, Q8IVF5): 4.1; pKd (SNTG2, Q9NY99): below the threshold; pKd (LIN7B, Q9HAP6): below the threshold |
| FHSIKQSTAV [CRHR1, P34998] | below the threshold | 3.71 | below the threshold | below the threshold | 3.64 | 3.87 | below the threshold | 4.19 | below the threshold | below the threshold | below the threshold | below the threshold | below the threshold | 4.01 | 5.52 | 4.4 | below the threshold | below the threshold | 4.39 | below the threshold | pKd (RAPGEF6, Q8TEU7): below the threshold; pKd (DFNB31_2, Q9P202): below the threshold; pKd (TIAM2, Q8IVF5): below the threshold; pKd (SNTG2, Q9NY99): 3.6; pKd (LIN7B, Q9HAP6): below the threshold |
| ATKDKKITTV [EXOC4, Q96A65] | below the threshold | 4.26 | 4.64 | below the threshold | 3.72 | 4.42 | 3.59 | 3.69 | 3.49 | 3.49 | below the threshold | 3.95 | below the threshold | 3.85 | below the threshold | 4.56 | 3.49 | below the threshold | 3.58 | below the threshold | pKd (RAPGEF6, Q8TEU7): below the threshold; pKd (DFNB31_2, Q9P202): below the threshold; pKd (TIAM2, Q8IVF5): below the threshold; pKd (SNTG2, Q9NY99): 3.92; pKd (LIN7B, Q9HAP6): below the threshold |

Second part, led by results:

| pKd (PARD3_3, Q8TEW0) | pKd (SNTA1, Q13424) | pKd (GORASP2, Q9H8Y8) | pKd (FRMPD2_3, Q68DX3) | pKd (SNTG1, Q9NSN8) | pKd (Inadl_8, Q8NI35) | pKd (DLG5_1, Q8TDM6) | pKd (NOS1, P29475) | pKd (HTRA4, P83105) | pKd (GRIP2_5, Q9C0E4) | pKd (LIMK2, P53671) | pKd (MPDZ_10, O75970) | pKd (IL16_4, Q14005) | pKd (SCRIB_1, Q14160) | pKd (NHERF3_1, Q5T2W1) | pKd (DLG3_3, Q92796) | pKd (PDLIM1, O00151) | pKd (DVL3, Q92997) | pKd (DFNB31_1, Q9P202) | pKd (IL16_1, Q14005) | Binder | also measured |
| --- | --- | --- | --- | --- | --- | --- | --- | --- | --- | --- | --- | --- | --- | --- | --- | --- | --- | --- | --- | --- | --- |
| below the threshold | 4.47 | below the threshold | below the threshold | 3.93 | below the threshold | below the threshold | below the threshold | below the threshold | below the threshold | below the threshold | below the threshold | below the threshold | 5.26 | 5.29 | 3.95 | below the threshold | below the threshold | 4.28 | below the threshold | SRPHTNETSL [MCC, P23508] | pKd (RAPGEF6, Q8TEU7): below the threshold; pKd (DFNB31_2, Q9P202): below the threshold; pKd (TIAM2, Q8IVF5): below the threshold; pKd (SNTG2, Q9NY99): 4.66; pKd (LIN7B, Q9HAP6): 3.64 |
| below the threshold | below the threshold | below the threshold | below the threshold | below the threshold | below the threshold | below the threshold | below the threshold | below the threshold | below the threshold | below the threshold | below the threshold | below the threshold | below the threshold | below the threshold | below the threshold | below the threshold | below the threshold | below the threshold | below the threshold | GSQSQVETEA [FKBP4, Q02790] | pKd (RAPGEF6, Q8TEU7): below the threshold; pKd (DFNB31_2, Q9P202): below the threshold; pKd (TIAM2, Q8IVF5): 4.04; pKd (SNTG2, Q9NY99): below the threshold; pKd (LIN7B, Q9HAP6): 3.62 |
| 4.9 | below the threshold | 4.61 | 3.76 | below the threshold | below the threshold | below the threshold | 3.64 | below the threshold | below the threshold | below the threshold | below the threshold | below the threshold | below the threshold | 3.69 | below the threshold | below the threshold | 4.34 | below the threshold | below the threshold | GDSSRKEYFI [GYPC, P04921] | pKd (RAPGEF6, Q8TEU7): below the threshold; pKd (DFNB31_2, Q9P202): below the threshold; pKd (TIAM2, Q8IVF5): 4.23; pKd (SNTG2, Q9NY99): below the threshold; pKd (LIN7B, Q9HAP6): 3.97 |
